Values joined by “and” are separate entries in the source; they are usually repeats but may differ in a detail not shown here. Equal entries are not always repeated.
Columns and labels:
Test in all cases: cell-based or functional assay
[1] = target: recombinant soluble human RANKL (human) (UniProt O14788)
[2] = target: T1, mouse RANK on murine bone marrow cells (mouse, UniProt O35305 31-625)
T1 sequence (looked up): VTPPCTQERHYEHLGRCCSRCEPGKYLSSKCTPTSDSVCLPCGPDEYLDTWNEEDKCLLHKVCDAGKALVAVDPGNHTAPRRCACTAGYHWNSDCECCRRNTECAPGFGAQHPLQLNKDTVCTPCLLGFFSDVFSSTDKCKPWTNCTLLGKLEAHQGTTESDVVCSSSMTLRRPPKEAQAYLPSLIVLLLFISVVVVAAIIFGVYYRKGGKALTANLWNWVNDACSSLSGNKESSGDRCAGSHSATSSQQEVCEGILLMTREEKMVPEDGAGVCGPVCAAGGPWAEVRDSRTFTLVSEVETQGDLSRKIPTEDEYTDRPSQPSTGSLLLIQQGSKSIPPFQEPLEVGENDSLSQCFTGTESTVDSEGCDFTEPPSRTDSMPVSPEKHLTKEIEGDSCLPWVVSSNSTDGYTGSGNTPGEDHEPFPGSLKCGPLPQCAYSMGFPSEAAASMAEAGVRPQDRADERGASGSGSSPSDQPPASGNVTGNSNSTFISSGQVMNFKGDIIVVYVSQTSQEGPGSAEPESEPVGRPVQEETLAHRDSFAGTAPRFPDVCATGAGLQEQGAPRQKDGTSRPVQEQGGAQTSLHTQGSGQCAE

[3] = target: soluble mouse RANKL (mouse) (UniProt O35235)
Chain of soluble mouse RANKL (mouse) (O35235 143-316 limits assumed): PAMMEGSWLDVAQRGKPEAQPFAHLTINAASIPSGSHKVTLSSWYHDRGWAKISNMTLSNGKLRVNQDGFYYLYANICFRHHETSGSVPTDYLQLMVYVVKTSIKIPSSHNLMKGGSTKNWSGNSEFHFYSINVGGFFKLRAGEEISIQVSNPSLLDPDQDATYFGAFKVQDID

Chain of recombinant soluble human RANKL (human) (O14788 143-317 limits assumed): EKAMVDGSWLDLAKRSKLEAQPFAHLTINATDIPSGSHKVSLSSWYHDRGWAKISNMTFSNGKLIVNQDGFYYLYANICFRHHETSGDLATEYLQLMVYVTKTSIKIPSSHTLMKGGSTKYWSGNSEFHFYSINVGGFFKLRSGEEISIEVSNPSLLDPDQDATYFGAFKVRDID

“RANK-Fc (positive control in osteoclast assay) (Fc fusion)” was tested, and the IC50, huRANKL-induced osteoclast formation (TRAP+ multinucleated cells) [1] was 0.092 µg/mL and the concentration for complete block of huRANKL-induced osteoclast formation [1] was 500 ng/mL and 1000 ng/mL.

B1: anti-RANK 3A3 antibody (full-length IgG, human Fab on a mouse IgG2a Fc backbone) (antibody, V domains shown)
VH: EVQLVESGGGVVQPGTSLRLSCAASGFTFSSYAMHWVRQAPGKGLEWVAVVSYDGSTKSYADSMKGRFTISRDNSKNTLYLQMNSLRAEDTAVYYCAKDPALRYFDWGYFQHWGQGTLVTVSS
VL: SYELTQPPSVSVSPGQTASITCSGDKLGDKYVCWYQQKPGQSPVLVIYGDSERPSGIPERFSGSNSGNTATLTISGTRAVDEADYYCQAWDSTTPLFGGGTNLTVL
B1 was tested, and the “IC50, huRANKL-induced osteoclast formation (TRAP+ multinucleated cells)” value [2] was 0.0035 µg/mL, the “IC50, muRANKL-induced osteoclast formation (TRAP+ multinucleated cells)” value [2] was 0.0074 µg/mL and the “potency ratio from IC50s, huRANKL-induced osteoclast formation” value [2] was roughly 25 fold. The “potency ratio from IC50s, muRANKL-induced osteoclast formation” value [2] was roughly 2 fold.

B2: anti-muRANKL IK22-5 mAb (antibody, from a related filing, V domains shown)
VH: QVQLKESGPGLVLSSATLSLTCTVSGFSLTNYDVSWIRHLPGKGLEWMGGVWLSGNTEYNSDFKSRLSISRDISKSQVFLKMSNLKIEDTGTYYCARDIGTTSDYWGQGVTVTVSS
VL: DIQVTQSPSFLSASVGDRVTFNCKTSQNINKYLAWYQAKFGEGPKLLIFNADSLQSGIPPRFSGSGSGTDFTLTISGLQPEDFATYFCLQYNSWPTFGSGTKLEIK
Molecule B2 has an IC50, muRANKL-induced osteoclast formation (TRAP+ multinucleated cells) [3] of 0.0198 µg/mL and a concentration for complete block of muRANKL-induced osteoclast formation [3] of 62.5 to 125 ng/mL.

Source: patent publication US20220227876A1 (COUNCIL OF THE QUEENSLAND INSTITUTE OF MEDICAL RESEARCH, published 2022)
